The target of test [1] is T1, BSA (UniProt P02769 25-607).
T1 construct: also called Bovine Serum Albumin
The test is described as follows: ELISA, coated BSA. A general note: In an ELISA, binding on a coated surface is turned into a signal by an enzyme label.

Test [2] addresses SARS-CoV-2 spike protein on VSV-delG pseudovirus particles or on cells (SARS-CoV-2, UniProt P0DTC2 14-1273). The test is described as follows: cell-based or functional assay.

T1 sequence (P02769 25-607 limits assumed): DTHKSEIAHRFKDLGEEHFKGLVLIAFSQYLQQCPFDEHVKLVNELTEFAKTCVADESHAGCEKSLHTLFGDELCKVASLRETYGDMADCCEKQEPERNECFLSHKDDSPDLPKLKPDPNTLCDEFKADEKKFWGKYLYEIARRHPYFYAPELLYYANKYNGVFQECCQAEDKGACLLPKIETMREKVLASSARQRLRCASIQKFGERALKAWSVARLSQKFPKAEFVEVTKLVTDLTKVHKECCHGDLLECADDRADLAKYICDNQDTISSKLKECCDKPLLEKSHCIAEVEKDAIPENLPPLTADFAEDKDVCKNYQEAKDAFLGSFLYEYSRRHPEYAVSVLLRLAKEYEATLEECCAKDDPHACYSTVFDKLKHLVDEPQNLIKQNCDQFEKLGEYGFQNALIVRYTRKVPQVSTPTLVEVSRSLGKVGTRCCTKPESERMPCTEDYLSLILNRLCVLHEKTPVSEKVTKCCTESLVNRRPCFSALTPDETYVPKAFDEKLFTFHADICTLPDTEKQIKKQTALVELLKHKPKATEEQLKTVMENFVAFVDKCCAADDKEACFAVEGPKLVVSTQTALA

B1: VHH3.42 (VHH)
VHH: QVQLQESGGGLVQPGGSLRLSCAASGSAVSINDMGWYRQPPGKQRELVATITKTGSTNYADSVKGRFTISRDNAKNAVYLEMNSLKPEDTATYYCNAWLPYGMGPDYYGMELWGKGTQVTVSS
With B1, the binding result in test [1] is “no binding”. Further, the “neutralization relative to VHH72_h1_S56A” value in test [2] was ~6 fold.

B2: VHH3.117 (VHH)
VHH: QVQLQESGGGLVQPGGSLRLSCAASGKAVSISDMGWYRQPPGKQRELVATITKTGSTNYADSAQGRFTISRDNTKSAVYLEMKSLKPEDTAVYYCNAWLPYGMGPDYYGMELWGKGTQVTVSS
With B2, in test [1], the binding result was “no binding”. For the same molecule, the “neutralization relative to VHH72_h1_S56A” value in test [2] was ~6 fold.

B3: VHH3.92 (VHH)
VHH: QVQLQESGGGLVQPGGSLRLSCAASGKAVSISDMGWYRQPPGKQRELVATITKTGNTNYADSAQGRFTISRDNAKSAVYLEMASLKPEDTAVYYCNAWLPYGMGPDYYGMELWGKGTQVTVSS
In the case of B3, the “neutralization relative to VHH72_h1_S56A” value in test [2] is ~6 fold.

Source of the values: US20240101647A1 (VIB VZW, published 2024).
